Reference: PMC12368724 (2025)

Biological target: GH1 β-glucosidase from Spodoptera frugiperda (Sfβgly), wild-type (Spodoptera frugiperda)
Assay: P100 buffer, pH 6, 5°C, protein sample 3 (SEC)

Kd: 5.5 µM
B1: GH1 β-glucosidase from Spodoptera frugiperda (Sfβgly), wild-type (enzyme)
chain: QQRRFPDDFLFGTATASYQIEGAWDEDGKGENIWDYMVHNTPEVIRDLSNGDIAADSYHNYKRDVEMMRELGLDAYRFSLSWARILPTGMANEVNPAGIAFYNNYIDEMLKYNITPLITLYHWDLPQKLQELGGFANPLISDWFEDYARVVFENFGDRVKMFITFNEPREICFEGYGSATKAPILNATAMGAYLCAKNLVTAHAKAYYLYDREFRPVQGGQCGITISVNWFGPATPTPEDEMAAELRRQGEWGIYAHPIFSAEGGFPKELSDKIAEKSAQQGYPWSRLPEFTEEEKAFVRGTSDFFGVNHYTAFLVSATERKGPYPVPSLLDDVDTGSWADDSWLKSASAWLTLAPNSIHTALTHLNNLYNKPVFYITENGWSTDESRENSLIDDDRIQYYRASMESLLNCLDDGINLKGYMAWSLMDNFEWMEGYIERFGLYEVDFSDPARTRTPRKAAFVYKHIIKHRVVDYEYEPETMVMTIDEGH
modifications: Monomer given, self-associates to a C2 homodimer. Limits by convention from the 5CG0 entity; paper numbering = entity + 20 (precursor numbering) Monomer given, self-associates to a C2 homodimer. Limits by convention from the 5CG0 entity; paper numbering = entity + 20 (precursor numbering)
